# Laboratory results from the nanobody polyreactivity screen of Harvey et al. (2022).
# Test: yeast display, Sf9 membrane polyspecificity reagent, FACS + sequencing; frameworks hold sequencing errors
# Outline: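 Genes from sorted yeast were amplified by colony PCR, read by MiSeq 2 × 250 sequencing and filtered on CDR length. These cells carried a synthetic nanobody library in Saccharomyces cerevisiae BJ5465 and were sorted by FACS into low and high (top ~1%) gates on anti-HA and streptavidin fluorescence. Polyreactivity is labelled according to the gate of origin.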
row,Sequence,polyreactivity (PSR sort gate)
1,QVQLVESGGVLVQAGCSLRLSCAAYGFTFASYAMGWYRQAPGKERELVAAISWGTVSTYYADSVKGRFTISRDNAMITVYLQMNSLRREDTAVYFCDAQRYTRLRRHGYWGLGTQVTVSS,high polyreactivity
2,QVQLVESGGGLVQAGGSLRLSCAASGRIFGANAMGWYRQAPGKERELVATITYGGTSTYYADSVKGRFTISRDNGKNTVYLQMNSLKPEDTAVSYCAADGYSVFAAILGEYFDSDYWGQGTQVTVSS,low polyreactivity
3,QVQLVESGGGLVQAGGSLRLSCAASGRIIALNAMGWYRQAPGKERELVAAISRRGGSTYYADSVKGRFTISRDNAKNTVYLQMNSLKPEDTAVYYCATDSVRYGYDYWGQGTQVTVSS,high polyreactivity
4,QLQLQESGGGLVQAGGSLRLSCAWSGTIAFTRDLGSYRQAPGKDREFVASIDRGASTYYADSVKGRFTISRDNAKNTVYLQMNSLKPEDTAVYYRAVIAPFYSSFAYWGQGTQVTVSS,high polyreactivity
5,QLQLVESGGGLVQAGGSLRLSCASSGIIFRWYTIGWSRQAPGKERELDAAITGRGGSTFYADSVKGRFTISRDNAKNTVYVQMNSLKPEDTAFYYCAAQYSYPTPYRTYEYDYWGQGTQVTVSS,high polyreactivity
6,QVQLVESGGGLVQAGGSLRLSCSASGIIFVRNAMGWYRQAPGKERELVAAITWRGSTYYADSVKGRFTISRDNAKNTVYLQMNSLKPEDTAVYYCAAVKPHYTSFRDYYWGQGTQVTVSS,high polyreactivity
7,QVQLVESGGGLVQAGGSLRLSCAASGFTFDGYGMGWYRQAPGKERELVAVITSGGSTKYADSVKGRFTISRDNAKNTVYLQMNSLNPEDTAVYYCNVVGGRYLYSAYDYWGQGTQVTVSS,low polyreactivity
8,QVQLVESGGGLVQAGGSLRLSCAASGSTFPWNAMGWYRQAPGKERELVAAINYGNGSTYYADSVKGRFTISRDNAKNTVYLQMNSLKPEDTAVYYCNADYTGTRTDSVTPEYEYWGQGTQVTVSS,low polyreactivity
9,QVQLVESGGGLVQAGGSLRLSCAASGSTFPRNAMGWYRQAPGKERELVATITSSAGGTYYADSVKGRFTISRDNAKNTVYLQMNSLKPEDTAVYYCNADKNGFWYTYFGRERDYWGQGTQVTVSS,low polyreactivity
10,QVQLVESGGGLVQAGGSLRLSCAASGRIYIDYAMGWYRQAPGKERELVATISESGGSTYYADSVKGRITISRDNAKNTVYLQMNSLKPEDTAVYYCAVDDRSGTVYFYTKFDYWGQGTQVTVSS,low polyreactivity
11,QVQLVESGGGLVQAGGSLRLSCAASGITFYRYAMGWYRQAPGKEREFVAAITWGSTYYADSVKGRFTISRDNAKNTVYLQMNSLKPEDTAVYYCNKKGYTVGATVGYWGQGTQVTVSS,low polyreactivity
12,QVQLVESGGGLVQAAGSLRLSCAASGSIFYNYAMGWYRQAPGKERELVAAITSGGITYYADSVKGRFTISRDNAKNTVYLQMNSLKPEYTAVYYCAAESLTGYGHYDYWGQGTQVTVSS,low polyreactivity
13,QVQLVESGAGLVQAGGRLRLSCADSGYIFKSYAIGWYRQAPGKEREFVAAISWSGGSTYADSVKGRFTISRDNAKNTVYLQMNSLKPEDTAVYSCAAVDYYYYGVYSSWYEYWGQGTQVTVSS,low polyreactivity
14,QVQLVESGGGLVLAAGSLRLSCAASGFIFGSYAMGWYRQAPGKERELFAAISRSGGRTYYADSVKGRFTISRDNAKNTVYLQMNSLKPEDTAVYYCAAVHLLVYPTYDYWGQGTQVTVSS,high polyreactivity
15,QLQLVESGGGLVPAGGSLRLSCAASGIIFTSNTMGWYRQAPGKEREFVASINWNGSSTYADSVKGRFTISRDNGKNTVYLEMNSLKPEDTAVYYCNADYISNSVQFSLYDYWGQGTQVTVSS,low polyreactivity
16,QVQLVESGGGLVQAGGSLRLSCAASGRIFGANAMGWYRQAPGKERELVAVITGGGGTYYADSVKGRFTISRDNAKNTVYLQMNRLKPEETAVYYCDWPRYYYTYPSHPMDYWGQGTQVTVSS,low polyreactivity
17,QVQLVESGGGLVQAGGSLRLSCAASGSIFAANAMGWYRQAPGKERELVAAISWSGGSTYADSVKGRFTISRDNAKNTVYLQMNSLKPEDTAVYYCNAYVYVGTGRGYDTLDYWGQGTQVTVSS,low polyreactivity
18,QVQLVESGGGLVQAGGSLRLSCAASGRTIYTYAMGWYRQAPGKERELVAAITKRGGSTYYADSVKGRFTISRDNAQNTVYLQMNSLKPEDTAVYYCNKELATARGQSLYRTYSGYGYWGQGTQVTVSS,high polyreactivity
19,QVQLVESGGGLVQAGGSLRLSCAASGSIFPYYAMGWYRQAPGKERELVAAISGSGGSTYYADSVKGRFTISRDNAKNTVYLQLNSLKPVDTAVYYCATADVYVYWYTSTDDYWGQGTQVTVSS,low polyreactivity
20,QVQLVESGGGLVQAGGSLRLSCAASGSIFFYAMGWYIQAPGKERQLVAAISWRGGSTYADSVKGRFTISRDNAKKTVYLQMKSLKPEDTAVYYCAKDWVRSGAVIDYDYWGQGTQVTVSS,high polyreactivity
21,QVQLVESGGALVQAGGSLRLSCAASGRTFYNYAMGWYRQAPGKEREFVASITTSGGSTYYADSVKGRFTISRDNAKNTVYLQMNSLIPEDTAVYYCARRAYRSWTRNSYEYYYWGQGTQVTVSS,high polyreactivity
22,QVQLVESGGGLVQAGGSLRLSCAASGRIFLINALGCYRQAPGKERELVAAIRTGGNTYYADSVKGRFTISRDNAKNTVYLQMNSLKPEDTAVYSCAADRIYPYYRWSGAHRSDVDYWGQGTQVTVSS,low polyreactivity

row,Sequence,polyreactivity (PSR sort gate)
1,QDQLVESGGGLVQAGGSLRLSCAASGSTLAYNAKGWYRPAPGKERELVAGIRGSGGSTYYADSVKGRFTISRDNAKNTVYLLMNSLKPEDTAVYDCAAAGYYYYLYAAYYYWGQGTQVTVSS,low polyreactivity
2,QLQLVESGGGLVQAGGSLRLSCAASGSTFPTNAMGWYRQAPGKERELVARISWDGGRTNYADSVKGRFTISRDNAKNTVYLQMNSLKPEDTAVYYCAAEKQHFGPYGYWGQGTQVTVSS,low polyreactivity
3,QVQLVESGGGLVQAGGSLRLSCAASGSTFYGYAMGWYRQAPGKERELVAVISWRGTSTYYADSVKGRFTISRDNAKNTVYLQMNSLKPEDTAVYYCAARGLWPYDYWGQGTQVTVSS,low polyreactivity
4,QVQLVESGGGLVQAGGSRRLSCAASGRTFEGNAMGWYRPAPGKERELVAAISTSGGRTYYADSVKGRFTISRDNAKNTVYLQLNSLIPEDTAVYDCNTDQYSPYEYSSFDSWGQCTQVTVSS,low polyreactivity
5,QVQLVESGGGLVQAGGSLRLSCAASGSIFYSYAMGWYRQAPGKERELVAAISWDASTYYADSVKGRFTISRDNAKNTVYLQMKSLKTEDTAVYYCNADIPYYFVFDAYDYWGQGTQVTVSS,low polyreactivity
6,QVHLVESGGGIVQAGVSLRLSCAASGRIFYGYTMGWYRQAPGKERELVASIDYSTGRTYYADSVKGRFTISRDNAKYTVYLQMNSLKPEDTAVYYCNADPNYSFLRYDYWGQGTQVTVSS,high polyreactivity
7,QVQLVESGGGLVQAGGSLRLSCAASGSIFTTYAMGWYRQAPGKERELVATITSSDSTNYADSVKGRFTISRDNAKNTVYLQMNSLKPEDTAVYYCNAGGDRTVSVAWYSADDYWGQGTQVTVSS,low polyreactivity
8,QVQLVESGGGLVQAGGSLRLSCAASGLIFVSYAMGWYRPAPGKERELVASITDSDSSTYYADSVKGRFTISRDNAKNTVYLQMNSLKPEDTAVYYCATGGRTEIWYPTLDYWGQGTQVTVSS,low polyreactivity
9,QVQLVESGGGLVKAGGSLRLSCDASGRIFKYYAMGWYRPAPGKEWELVAAISSVGYTNYADSVKGRFTISRDNAKNTVYLQLNSLKPEDTAVYYCAAPYQHYDVNYDSWGQGTQVTVSS,low polyreactivity
10,QVQLVESGGGLVQAGGSLRLSCSASGRTFTPYAMGWYRQAPGKEREFVAAISIVGRTKYADSVKGRFTISPDNAKNTFYFQMNSLKPEDTAVYYCNAQDSRDRKFYWGYTRGHWGQGTQVTVSS,low polyreactivity
11,QVQLVESGGGLVQAGGSLRLSCAASGLTFWGYAMGWYRQAPGKEREFVASISSGGGSTYYADSVKGRFTISRDNAKNTVYLQMNSLKPEDTAVYYCNVDVHLYLYKSYTYRYYYWGQGTQVTVSS,low polyreactivity
12,QVQLVESGGGLVQAGGSLRLSCAASGITFYIYAMGWYRQAPGKEREFVAAISDDGSTHYADSVKGRFTISRDNAKNTVYLQLNSLKPEDTAVYYCNADYYWFFDFFDYDYWGQGTQVTVSS,low polyreactivity
13,QVQLVESGGGLVQAGGSLRLSCAASGRTLGKYVMGWYRQAPGKERELVAAISVRGGTTYYADSVKGRFTISRDNAKYTVYLQMNSLKPEDTAVYYGNKAYYVWYGWGQGTQVTVSS,high polyreactivity
14,QVQLVESGGGLVQSGGSLRLSCAASGNTFTFYAMGWYRQAPGKERELVAVISQIADGCTYYADSVKGRFTISRDNSKNSVYLQMNSLKPEDTAVYYCIAQTWDEYWGQGTQVTVSS,low polyreactivity
15,QVQLVESGGGLVQAGGSLRLSCAASGSIFYPNVMGWDRQAPGKERELVAAIRTSGGSTYYADSVKGRFTISRDNAKNTVYLQMNSLKPEDTAVYYCAADYIYVKYEYWGQGTQVTVSS,high polyreactivity
16,QVQLVESGGGLVQAGGSLRLSCAASGRIFGLYAMGWYRQAPGKERELVAAISSRGGNTYYADSVKGRFTISRDDAKNTVYLQMNSLKPEDTAVYYCARDSYSLSRTYDSWGQGTQVTVSS,high polyreactivity
17,QVQLVESGGGLVQAGGSLRLSCAASGSTFVPYAIGWYRQAPGTERELVAAISSRGGRTSYADSVKGRFTISRDNAKNTVYLQMKRLKPEDTAVYYCIALYPGRLTDYSRSKMEYWGQGTQVTVSS,high polyreactivity
18,QVQLVESGGGLVQAGGSLRLSCAASGRIFSFYTMGWYRQAPGKERELVAAISGSGGSTYYADSVKGRFTISRDNANNTFYLQMNSLKPEDTAVYYCAAGYGFRYYLYDYWGQGTQVTVSS,high polyreactivity
19,QVHLVDSGGGLVLAGGSLRLSCAASGRNFERYAMGWYRKAPGKERELVAAISSSATRTYYADSVKGRFTISRDNAKNTVYLQMNSLKPEDTAVYYCAAKGAARDGSSEYNYWGQGTQVTVSS,high polyreactivity
20,QVQLVESGGGLVQAGGSLRLSCAASGSIFKRNAMGWYRQAPGKERELVASISSGGSTHYADSVKGRFTISRDNAKNTVYLQMNSLKPEDTAVYYCAADSSWYVLYGSYYRSGLDYWGQGTQVTVSS,low polyreactivity
21,QVQLVESGGGLVQAGGSLRLSCAASGITFRKYAMGWYRPAPGKERELVAAISSGGSRTYYADSVKGRFTISRDNAKNTVYLQMNSLKPEDTAVYYCAARKADTVFKFEYWGQGTQVTVSS,high polyreactivity
